No end group written: not given here. TMR = tetramethylrhodamine
Target: actin (rabbit muscle) (rabbit, UniProt P68135 1-377)
Assay: FP; actin filaments

{TMR}-MPAKTPIYLKAANNKKGKKFK (domain or fragment) [Cdc42EP3 (1-21), TMR labeled at the N-terminus]
Kd: 18.9 µM

Source: PMC11952830 (2025)
